Assay results from paper PMC7849420 (Virology, 2021).

Key:
Test in all cases: ELISA
[1] = molecular target: recombinant truncated SARS-CoV nucleocapsid (N) protein AA133-422 (SARS-CoV, UniProt P59595 133-422)
[2] = molecular target: recombinant truncated SARS-CoV-2 nucleocapsid (N) protein AA133-419 (SARS-CoV-2, UniProt P0DTC9 133-419)
[3] = molecular target: T1, recombinant truncated HuCoV-NL63 nucleocapsid (N) protein AA100-377 (HuCoV-NL63, UniProt Q6Q1R8 100-377)
T1 sequence: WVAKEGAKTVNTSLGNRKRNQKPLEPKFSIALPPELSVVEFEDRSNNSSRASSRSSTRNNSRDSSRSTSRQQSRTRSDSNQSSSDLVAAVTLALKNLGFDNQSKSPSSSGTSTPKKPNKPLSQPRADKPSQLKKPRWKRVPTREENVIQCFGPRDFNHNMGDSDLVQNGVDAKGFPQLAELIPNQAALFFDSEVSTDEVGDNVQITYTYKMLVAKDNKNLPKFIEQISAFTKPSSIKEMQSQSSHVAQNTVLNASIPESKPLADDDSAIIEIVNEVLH

[4] = molecular target: recombinant truncated HuCoV-NL63 nucleocapsid (N) protein AA100-377 (HuCoV-NL63, UniProt Q6Q1R8)
[5] = molecular target: recombinant truncated SARS-CoV nucleocapsid (N) protein AA133-422 (SARS-CoV, UniProt P59595)
[6] = molecular target: recombinant truncated SARS-CoV-2 nucleocapsid (N) protein AA133-419 (SARS-CoV-2, UniProt P0DTC9)

B1: mBG17 mouse monoclonal antibody against SARS-CoV-2 nucleocapsid protein (antibody, V domains shown)
VH: EVKLEESGGGLVQPGGSMKFSCVASGFTFSDYWMNWVRQSPDKGLEWVAEIRLKSNNYATHYAASVKGRFTISRDDSKSSVYLQMNNLRAEDSGIYYCTRSAMDYWGQGTSVTVSS
VL: DIVMSQSPSSLAVSVGEKITMSCKSSQSLLYTSDQKNYLAWFQQKPGQSPKLLIFWASTRDSGVPDRFTGSGSGTDFTLTISSVKAEDLAVYYCQQFYNYPRTFGGGTKLEIK
- Corected Average (background-corrected A450) [1]: 0.872 absorbance at 450nm
- Corected Average (background-corrected A450) [2]: 0.832 absorbance at 450nm
- Corected Average (background-corrected A450) [3]: 0.365 absorbance at 450nm

B2: mBG67 mouse monoclonal antibody against SARS-CoV-2 nucleocapsid protein (antibody, V domains shown)
VH: EVQLVESGGGLVQPGGSLKLSCAASGFTFSNYGMSWVRQTPDKRLELVATINRNGGSTYYLDSVKVRFTISRDNAKSTLFLQLSSLKSDDTAMYYCARIYDFDEDYFDVWGAGTTVTVSS
VL: QIVLTQSPAIMSASLGERVTMTCTASSSVSSSYLHWYQQKPGSSPKLWIYSTSNLASGVPARFSGSGSGTSYSLTISSMEAEDAATYYCLQYHRSPWTFGGGTKLEIK
- Corected Average (background-corrected A450) [1]: 0.094 absorbance at 450nm
- Corected Average (background-corrected A450) [2]: 0.861 absorbance at 450nm

B3: mBG86 mouse monoclonal antibody against SARS-CoV-2 nucleocapsid protein (antibody, V domains shown)
VH: EVQLVESGGGLVQPGGSLKLSCAASGFTFSNYGMSWVRQTPDKRLELVATINRNGGSTYYLDSVKVRFTISRDNAKSTLFLQMSSLKSEDTAMYYCARIYDYDEDYFDVWGAGTTVTVSS
VL: QIVLTQSPAIMSASLGERVTMTCTASSSVSSSYLHWYQQKPGSSPKLWIYSTSNLASGVPARFSGSGSGTSYSLTISSMEAEDAATYYCLQYHRSPWTFGGGTKLEIK
- Corected Average (background-corrected A450) [2]: 0.806 absorbance at 450nm

B4: mBG21 mouse monoclonal antibody against SARS-CoV-2 nucleocapsid protein (antibody, V domains shown)
VH: QIQLVQSGPELKKPGETVKISCKASGYTFTDYSMHWVKQAPGKGSKWMGWINTETGEPTYADDFKGRFAFSLETSASTAYLQINNLKNEDTATYFCALRRWGQGTLVTVSA
VL: IVMTQTPKFLLVSAGDRVTITCKASQSVSNDVAWFQQKPGQSPKLLIYFASNRYTGVPDRFTGSGYGTDFTFTITTVQAEDLAVYFCQQDYSSPWTFGGGTKLEIK
- Corected Average (background-corrected A450) [4]: 0.339 absorbance at 450nm
- Corected Average (background-corrected A450) [5]: 0.302 absorbance at 450nm
- Corected Average (background-corrected A450) [6]: 0.743 absorbance at 450nm

B5: mBG22 mouse monoclonal antibody against SARS-CoV-2 nucleocapsid protein (antibody, V domains shown)
VH: QIQLVQSGPELKKPGETVKISCKASGYTFTDYSMHWVKQAPGKGSKWMGWINTETGEPTYADDFKGRFAFSLETSASTAYLQINNLKNEDTATYFCALRRWGQGTLVTVSA
VL: IVMTQTPKFLLVSAGDRVTITCKASQSVSNDVAWFQQKPGQSPKLLIYFASNRYTGVPDRFTGSGYGTDFTFTITTVQAEDLAVYFCQQDYSSPWTFGGGTKLEIK
- Corected Average (background-corrected A450) [4]: 0.339 absorbance at 450nm
- Corected Average (background-corrected A450) [5]: 0.779 absorbance at 450nm
- Corected Average (background-corrected A450) [6]: 0.754 absorbance at 450nm
